Article PMC7939455
Where two headings read alike, the source gives them in different places.

Key:
[1] = molecular target: Arg838(g- r+):Arg838(g+ r-) RetGC1 dimer (human) (UniProt Q02846)
[2] = molecular target: Ser838(g- r+):Arg838(g+ r-) RetGC1 heterodimer (human) (UniProt Q02846)
[3] = molecular target: Ser838(g- r+):Ser838(g+ r-) RetGC1 dimer (human) (UniProt Q02846)
[4] = molecular target: R838S mOrange-RetGC1 (human) (UniProt Q02846); assay: co-localisation of fluorescent fusions in living cells (confocal microscopy, PCC); mOrange-RetGC1 co-expressed with GCAP1-GFP or RD3-GFP in HEK293 cells (GFP plasmid to RetGC1 plasmid ~1/100 molar ratio); confocal images 24-30 h after transfection; PCC of whole-cell images; the GFP proteins are diffuse without RetGC1 and go to the membrane cyclase when they bind; PCC < 0.6 indicates lack of co-localization
[5] = molecular target: mOrange-tagged R666W RetGC1 (human) (UniProt Q02846); assay: as above
[6] = molecular target: mOrange-tagged WT human RetGC1 (human) (UniProt Q02846); assay: as above
WT human RetGC1 (human) [7] = molecular target: WT human RetGC1 (human) (UniProt Q02846)
R666W RetGC1 (human) = R666W RetGC1 (human) (UniProt Q02846)
WT human RetGC1 (human) [8] = molecular target: WT human RetGC1 (human) (UniProt Q02846); remark: listed apart in the source
[9] = molecular target: R838S mOrange-RetGC1 (human) (UniProt Q02846); assay: co-localisation of fluorescent fusions in living cells (confocal microscopy, PCC); mOrange-RetGC1 co-expressed with GCAP1-GFP or RD3-GFP in HEK293 cells (GFP plasmid to RetGC1 plasmid ~1/100 molar ratio); confocal images 24-30 h after transfection; PCC of whole-cell images; the GFP proteins are diffuse without RetGC1 and go to the membrane cyclase when they bind; PCC < 0.6 indicates lack of co-localization; remark: listed apart in the source
[10] = molecular target: mOrange-tagged G982VfsX39 RetGC1 (human) (UniProt Q02846); assay: as above
[11] = molecular target: mOrange-tagged L911F RetGC1 (human) (UniProt Q02846); assay: as above
[12] = molecular target: mOrange-tagged R666W RetGC1 (human) (UniProt Q02846); assay: as above; remark: listed apart in the source
[13] = molecular target: mOrange-tagged R761W RetGC1 (human) (UniProt Q02846); assay: as above
[14] = molecular target: mOrange-tagged WT human RetGC1 (human) (UniProt Q02846); assay: as above; remark: listed apart in the source

Q: What does the source list for “Recombinant human RD3 (from UniProt Q7Z3Z2 1-195) (natural protein)”?
A: [RD3]1/2: RD3 concentration causing 50% inhibition of RetGC1 activity preactivated by 1.5 μM GCAP1 in 10 mM Mg2+ and 2 mM EGTA; pair acted on: GCAP1 with the cyclase dimer [1]: 2.3 nM; [RD3]1/2: RD3 concentration causing 50% inhibition of RetGC1 activity preactivated by 1.5 μM GCAP1 in 10 mM Mg2+ and 2 mM EGTA; pair acted on: GCAP1 with the cyclase dimer [2]: 42 nM; [RD3]1/2: RD3 concentration causing 50% inhibition of RetGC1 activity preactivated by 1.5 μM GCAP1 in 10 mM Mg2+ and 2 mM EGTA; pair acted on: GCAP1 with the cyclase dimer [3]: 23 nM

Q: With “RD3-GFP (from UniProt Q7Z3Z2 1-195) (natural protein)” as the molecule, how does the PCC (Pearson's correlation coefficient of co-localization) [4] read?
A: Its PCC (Pearson's correlation coefficient of co-localization) is 0.91.

Q: And the PCC (Pearson's correlation coefficient of co-localization) [5]?
A: Its PCC (Pearson's correlation coefficient of co-localization) is 0.9.

Q: What about the PCC (Pearson's correlation coefficient of co-localization) [6] of the same molecule?
A: Its PCC (Pearson's correlation coefficient of co-localization) is 0.91.

B1: Human GCAP1 (E6S), N-myristoylated (natural protein)
chain: MGNVMSGKSVEELSSTECHQWYKKFMTECPSGQLTLYEFRQFFGLKNLSPSASQYVEQMFETFDFNKDGYIDFMEYVAALSLVLKGKVEQKLRWYFKLYDVDGNGCIDRDELLTIIQAIRAINPCSDTTMTAEEFTDTVFSKIDVNGDGELSLEEFIEGVQKDQMLLDTLTRSLDLTRIVRRLQNGEQDEEGADEAAEAAG
modifications: N-myristoylated
Q: For B1, which [GCAP]1/2: half-saturating concentration of Mg2+ GCAP1 for activation of guanylyl cyclase activity in HEK293 membranes (10 mM Mg2+, 2 mM EGTA) (WT human RetGC1 (human) [7]) is on record?
A: The [GCAP]1/2: half-saturating concentration of Mg2+ GCAP1 for activation of guanylyl cyclase activity in HEK293 membranes (10 mM Mg2+, 2 mM EGTA) was 1.13 µM.

Q: What about the [GCAP1]1/2: half-saturating concentration of Mg2+ GCAP1 for activation of guanylyl cyclase activity in HEK293 membranes (10 mM Mg2+, 2 mM EGTA) (R666W RetGC1 (human)) of the same molecule?
A: Its [GCAP1]1/2: half-saturating concentration of Mg2+ GCAP1 for activation of guanylyl cyclase activity in HEK293 membranes (10 mM Mg2+, 2 mM EGTA) is 7.25 µM.

Q: What about the [GCAP]1/2: half-saturating concentration of GCAP1 for RetGC1 activation in 10 mM Mg2+ and 2 mM EGTA (Fig. 10C) [1] of the same molecule?
A: Its [GCAP]1/2: half-saturating concentration of GCAP1 for RetGC1 activation in 10 mM Mg2+ and 2 mM EGTA (Fig. 10C) is 1.65 µM.

Q: And the [GCAP]1/2: half-saturating concentration of GCAP1 for RetGC1 activation in 10 mM Mg2+ and 2 mM EGTA (Fig. 10C) [2]?
A: Its [GCAP]1/2: half-saturating concentration of GCAP1 for RetGC1 activation in 10 mM Mg2+ and 2 mM EGTA (Fig. 10C) is 0.22 µM.

Q: What about the [GCAP]1/2: half-saturating concentration of GCAP1 for RetGC1 activation in 10 mM Mg2+ and 2 mM EGTA (Fig. 10C) [3] of the same molecule?
A: The [GCAP]1/2: half-saturating concentration of GCAP1 for RetGC1 activation in 10 mM Mg2+ and 2 mM EGTA (Fig. 10C) was 0.4 µM.

Q: And the [GCAP]1/2: half-saturating concentration of GCAP1 for RetGC1 activation in 10 mM Mg2+ and 2 mM EGTA (Fig. 10C) (WT human RetGC1 (human) [8])?
A: Its [GCAP]1/2: half-saturating concentration of GCAP1 for RetGC1 activation in 10 mM Mg2+ and 2 mM EGTA (Fig. 10C) is 1.1 µM.

B2: Human GCAP2, N-myristoylated (natural protein)
chain: MGQEFSWEEAEAAGEIDVAELQEWYKKFVMECPSGTLFMHEFKRFFKVTDDEEASQYVEGMFRAFDKNGDNTIDFLEYVAALNLVLRGTLEHKLKWTFKIYDKDGNGCIDRLELLNIVEGIYQLKKACRRELQTEQGQLLTPEEVVDRIFLLVDENGDGQLSLNEFVEGARRDKWVMKMLQMDMNPSSWLAQQRRKSAMF
modifications: N-myristoylated
Q: Which [GCAP]1/2: half-saturating concentration of Mg2+ GCAP2 for activation of guanylyl cyclase activity in HEK293 membranes (10 mM Mg2+, 2 mM EGTA) (WT human RetGC1 (human) [7]) does the source give for B2 here?
A: The [GCAP]1/2: half-saturating concentration of Mg2+ GCAP2 for activation of guanylyl cyclase activity in HEK293 membranes (10 mM Mg2+, 2 mM EGTA) was 19 µM.

B3: Human GCAP3, N-myristoylated (natural protein)
chain: MGNGKSIAGDQKAVPTQETHVWYRTFMMEYPSGLQTLHEFKTLLGLQGLNQKANKHIDQVYNTFDTNKDGFVDFLEFIAAVNLIMQEKMEQKLKWYFKLYDADGNGSIDKNELLDMFMAVQALNGQQTLSPEEFINLVFHKIDINNDGELTLEEFINGMAKDQDLLEIVYKSFDFSNVLRVICNGKQPDMETDSSKSPDKAGLGKVKMK
modifications: N-myristoylated
Q: B3 was tested. Which [GCAP]1/2: half-saturating concentration of Mg2+ GCAP3 for activation of guanylyl cyclase activity in HEK293 membranes (10 mM Mg2+, 2 mM EGTA) (WT human RetGC1 (human) [7]) did it give?
A: Its [GCAP]1/2: half-saturating concentration of Mg2+ GCAP3 for activation of guanylyl cyclase activity in HEK293 membranes (10 mM Mg2+, 2 mM EGTA) is 5.3 µM.

B4: GCAP1-GFP (natural protein)
chain: MGNIMDGKSVEELSSTECHQWYKKFMTECPSGQLTLYEFRQFFGLKNLSPWASQYVEQMFETFDFNKDGYIDFMEYVAALSLVLKGKVEQKLRWYFKLYDVDGNGCIDRDELLTIIRAIRAINPCSDSTMTAEEFTDTVFSKIDVNGDGELSLEEFMEGVQKDQMLLDTLTRSLDLTRIVRRLQNGEQDEEGASGRETEAAEADG
Q: What does the source list for B4?
A: PCC (Pearson's correlation coefficient of co-localization) [9]: 0.89; PCC (Pearson's correlation coefficient of co-localization) [10]: 0.87; PCC (Pearson's correlation coefficient of co-localization) [11]: 0.89; PCC (Pearson's correlation coefficient of co-localization) [12]: 0.64; PCC (Pearson's correlation coefficient of co-localization) [13]: 0.64; PCC (Pearson's correlation coefficient of co-localization) [14]: 0.9
